According to patent US20250297004A1, “NECTIN-4 BINDING AGENTS” (INNATE PHARMA, priority 2022, published 2025):
Substitutions are numbered along the chain they refer to.

B1: H4L1 (antibody, human IgG1, V domains shown)
VH: QVQLVQSGAEVKKPGASVKVSCKASGYIFTSYWMHWVKQAPGQGLEWMGEIDPSDSYTNYNQKFKGRVTMTLDKSTSTTYMELSSLRSEDTAVYYCARGYGNYGDYWGQGTLVTVSS
VL: DVVMTQSPLSLPVTPGEPASISCRSSKSLLHSNGITYLYWYLQKPGQSPQLLIYQMSNLASGVPDRFSSSGSGTDFTLKISRVEAEDVGVYYCAQNLELPWTFGGGTKVEIK
notes: human IgG1 isotype
B2: H5L3 (antibody, human IgG1, kappa, V domains shown)
VH: B1 VH with A40R
VL: DVVMTQSALSNPVTPGEPASISCRSSKSLLHSNGITYLYWYLQKPGQSPQLLIYQMSNLASGVPDRFSSSGSGTDFTLKISRVEAEDVGVYYCAQNLELPWTFGGGTKVEIKR
notes: Tested as human IgG1
B3: H2L0 (antibody, human IgG1, V domains shown)
VH: B1 VH with I28T, K38R
VL: B1 VL with V2I, S69G
notes: human IgG1 isotype
B4: H1L0 (antibody, human IgG1, V domains shown)
VH: B1 VH with I28T, K38R, K74T
VL: B1 VL with V2I, S69G
notes: human IgG1 isotype
B5: H3L3 (antibody, human IgG1, V domains shown)
VH: B1 VH with K38R
VL: B1 VL with P8A, L11N
notes: human IgG1 isotype
B6: H3L1 (antibody, human IgG1, V domains shown)
VH: B1 VH with K38R
VL: B1 VL
notes: human IgG1 isotype
B7: H3L0 (antibody, human IgG1, V domains shown)
VH: B1 VH with K38R
VL: B1 VL with V2I, S69G
notes: human IgG1 isotype
B8: H3L2 (antibody, human IgG1, V domains shown)
VH: B1 VH with K38R
VL: B1 VL with L11N
notes: human IgG1 isotype
B9: H0L0 (antibody, human IgG1, V domains shown)
VH: B1 VH with I28T, K38R, L72R, K74T, T79V
VL: B1 VL with V2I, S69G
notes: human IgG1 isotype; also called HOLO; humanized 5E7 variant H0L0

Columns and labels:
human Nectin-4 = molecular target: T1, human Nectin-4 (Homo sapiens, UniProt Q96NY8); experiment: Binding to human Nectin-4 by SPR; settings: for ka: SPR association constant; for kd: SPR dissociation constant; for Kd: SPR, human IgG1 isotype antibodies
T1 sequence (Q96NY8 32-510): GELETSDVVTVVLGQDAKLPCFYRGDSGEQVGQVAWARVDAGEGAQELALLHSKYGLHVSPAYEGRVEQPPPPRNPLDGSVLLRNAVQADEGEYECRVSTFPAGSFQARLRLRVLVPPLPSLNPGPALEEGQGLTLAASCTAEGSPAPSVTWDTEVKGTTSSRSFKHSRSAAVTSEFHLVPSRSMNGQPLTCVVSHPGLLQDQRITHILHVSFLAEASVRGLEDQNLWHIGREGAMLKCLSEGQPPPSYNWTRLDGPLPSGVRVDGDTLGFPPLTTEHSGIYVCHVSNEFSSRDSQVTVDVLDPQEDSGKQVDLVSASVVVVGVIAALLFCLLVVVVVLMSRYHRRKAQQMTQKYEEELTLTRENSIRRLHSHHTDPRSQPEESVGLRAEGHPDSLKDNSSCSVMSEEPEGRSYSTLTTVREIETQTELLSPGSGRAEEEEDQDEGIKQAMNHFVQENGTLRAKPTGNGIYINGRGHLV
Procedure: The antibodies in Table 3 of Example 3 were cloned as human IgG1 isotype antibodies, produced and purified, then tested for binding to human Nectin-4. Affinity of the 16 humanized variants, as well as their association and dissociation constants were assessed by SPR analysis. Table 4 summarizes all the calculated constants (Affinity constant KD (nM), association constant ka (1/Ms) and dissociation constant kd (1/s)).
The antibodies in Table 6 of Example 5 were cloned as human IgG1 isotype antibodies, produced and purified, then tested for binding to human Nectin-4. Affinity of the 16 humanized variants, as well as their association and dissociation constants were assessed by SPR analysis. Table 7 summarizes all the calculated constants (Affinity constant KD (nM), association constant ka (1/Ms) and dissociation constant kd (1/s)).

[1] = molecular target: T2, human Nectin-4 expressed on cells (human, UniProt Q96NY8 32-510); experiment: cell-based or functional assay
T2 sequence: T1 sequence (Q96NY8 32-510)

[2] = molecular target: T2, human Nectin-4 expressed on cells; experiment: flow cytometry on SUM190 cells, MedFI at saturation
Procedure: The humanized antibodies in Table 3 of Example 3 and in Table 6 of Example 5 were cloned, produced and purified, then tested for binding to Nectin-4 expressing cells by flow cytometry. Binding of humanized variants in human IgG1 format was determined on the SUM190 cell line expressing high levels of Nectin-4.

[3] = molecular target: human Nectin-4 (protein used in the SPR affinity measurements) (human) (UniProt Q96NY8); experiment: SPR, human IgG1
[4] = molecular target: T2, human Nectin-4 expressed on cells; experiment: cell-based or functional assay; remark: listed apart in the source

| Molecule | ka (human Nectin-4; second set (Table 7)) | kd (human Nectin-4; second set (Table 7)) | Kd (human Nectin-4; second set (Table 7)) | internalization efficiency on MDA-MB-468, normalized to chimeric parental antibody (Fab-ZAP, CTG), first column [1] | internalization efficiency on MDA-MB-468, normalized to chimeric parental antibody (Fab-ZAP, CTG), second column [1] | Max MedFi [2] | Kd [3] | koff [3] | kon [3] | internalization efficiency on SUM190, normalized to chimeric parental antibody (Fab-ZAP, CTG), experiment 1 [4] | internalization efficiency on SUM190, normalized to chimeric parental antibody (Fab-ZAP, CTG), experiment 2 [4] | ka (human Nectin-4; first set (Table 4)) | kd (human Nectin-4; first set (Table 4)) | Kd (human Nectin-4; first set (Table 4)) |
| --- | --- | --- | --- | --- | --- | --- | --- | --- | --- | --- | --- | --- | --- | --- |
| B1 | 310000 ± 30000 M⁻¹ s⁻¹ | 0.0059 ± 0.0003 s⁻¹ | 0.0195 ± 0.0008 µM | 31 % of chimeric parental | 31 % of chimeric parental | 18400 MedFI | 0.0195 µM | 0.0059 s⁻¹ | 310000 M⁻¹ s⁻¹ | 73.5 % of chimeric parental | 72.6 % of chimeric parental | – | – | – |
| B2 | – | – | – | 87.8 % of chimeric parental | 87.8 % of chimeric parental | 27100 MedFI | 0.0215 µM | 0.0053 s⁻¹ | 250000 M⁻¹ s⁻¹ | 82.8 % of chimeric parental | 74.9 % of chimeric parental | – | – | – |
| B3 | – | – | – | -35.5 % of chimeric parental | -35.5 % of chimeric parental | 16700 MedFI | 0.0464 µM | 0.0062 s⁻¹ | 130000 M⁻¹ s⁻¹ | 74.2 % of chimeric parental | 61.8 % of chimeric parental | 130000 M⁻¹ s⁻¹ | 0.0062 s⁻¹ | 0.0464 µM |
| B4 | – | – | – | -7.4 % of chimeric parental | -7.4 % of chimeric parental | 17300 MedFI | 0.0673 µM | 0.0072 s⁻¹ | 110000 M⁻¹ s⁻¹ | 83.7 % of chimeric parental | 58.6 % of chimeric parental | 110000 M⁻¹ s⁻¹ | 0.0072 s⁻¹ | 0.0673 µM |
| B5 | – | – | – | 43.8 % of chimeric parental | 43.8 % of chimeric parental | 23800 MedFI | 0.027 µM | 0.007 s⁻¹ | 260000 M⁻¹ s⁻¹ | 65.3 % of chimeric parental | 59.6 % of chimeric parental | 260000 M⁻¹ s⁻¹ | 0.007 s⁻¹ | 0.027 µM |
| B6 | – | – | – | 48.2 % of chimeric parental | 48.2 % of chimeric parental | 17200 MedFI | 0.022 µM | 0.0087 s⁻¹ | 400000 M⁻¹ s⁻¹ | 82.1 % of chimeric parental | 41 % of chimeric parental | 400000 ± 30000 M⁻¹ s⁻¹ | 0.0087 ± 0.0004 s⁻¹ | 0.022 ± 0.0004 µM |
| B7 | – | – | – | 1.2 % of chimeric parental | 1.2 % of chimeric parental | 17600 MedFI | 0.0358 µM | 0.0041 s⁻¹ | 110000 M⁻¹ s⁻¹ | 81.4 % of chimeric parental | 69.7 % of chimeric parental | 110000 M⁻¹ s⁻¹ | 0.0041 s⁻¹ | 0.0358 µM |
| B8 | – | – | – | 13.7 % of chimeric parental | 13.7 % of chimeric parental | 22900 MedFI | 0.0259 µM | 0.0081 s⁻¹ | 310000 M⁻¹ s⁻¹ | 69.8 % of chimeric parental | 45.5 % of chimeric parental | 310000 M⁻¹ s⁻¹ | 0.0081 s⁻¹ | 0.0259 µM |
| B9 | 170000 M⁻¹ s⁻¹ | 0.014 s⁻¹ | 0.0802 µM | -36.2 % of chimeric parental | -36.2 % of chimeric parental | 15500 MedFI | 0.0802 µM | 0.014 s⁻¹ | 170000 M⁻¹ s⁻¹ | 65.9 % of chimeric parental | 35.4 % of chimeric parental | 170000 M⁻¹ s⁻¹ | 0.014 s⁻¹ | 0.0802 µM |
